Source: patent US20160355602A1 (Astellas, published 2016)
Values joined by “and” are separate entries in the source; they are usually repeats but may differ in a detail not shown here. Equal entries are not always repeated.

Assays:
[1] = molecular target: T1, human TLR2 protein (R&D Systems, 2616-TR-050) (human, UniProt O60603 21-590, limits assumed); test: ELISA, human TLR2 protein immobilized on plate, detection with anti-human IgG-HRP
T1 construct: Bought recombinant protein
Description: (§1) In order to evaluate the binding activity of each of two bispecific antibodies prepared in Example 8 for human TLR2 and human TLR4, ELISA was carried out using a human TLR2 protein and a human TLR4/MD2 protein. 15 μL/well of a human TLR2 protein (R&D Systems, 2616-TR-050) diluted to a concentration of 10 μg/mL in PBS (Life Technologies, 10010-023) was added to a MaxiSorp 384-well plate Clear (Thermo Fisher Scientific Inc.), followed by immobilization at room temperature for 1 hour. Similarly, 15 μL/well of a human TLR4/MD2 protein (R&D Systems, 3146-TM/CF) was added at 10 μg/mL, followed by immobilization at room temperature for 1 hour. After 1 hour, the wells were washed three times with a washing solution (0.05% Tween-20-containing Tris-buffered saline (TBS)), and 100 μL/well of Blocking One (NACALAI TESQUE, INC., 03953-95) was added, followed by blocking at room temperature for 1 hour. The wells were washed again three times with a washing solution, 15 μL/well of two bispecific antibodies prepared in Example 8 was added to the well on which the human TLR2 protein was immobilized and the well on which the human TLR4/MD2 protein was immobilized. […] An absorbance at 450 nm was measured by using Safire2 (TECAN), and an EC50 value of each antibody for the human TLR2 protein and the human TLR4/MD2 protein was calculated.

[2] = molecular target: T2, human TLR2 endogenously expressed on cells (THP1-xBlue cells; normal human peripheral blood mononuclear cells) (human, UniProt O60603 21-784); test: cell-based or functional assay
T2 sequence (O60603 21-784): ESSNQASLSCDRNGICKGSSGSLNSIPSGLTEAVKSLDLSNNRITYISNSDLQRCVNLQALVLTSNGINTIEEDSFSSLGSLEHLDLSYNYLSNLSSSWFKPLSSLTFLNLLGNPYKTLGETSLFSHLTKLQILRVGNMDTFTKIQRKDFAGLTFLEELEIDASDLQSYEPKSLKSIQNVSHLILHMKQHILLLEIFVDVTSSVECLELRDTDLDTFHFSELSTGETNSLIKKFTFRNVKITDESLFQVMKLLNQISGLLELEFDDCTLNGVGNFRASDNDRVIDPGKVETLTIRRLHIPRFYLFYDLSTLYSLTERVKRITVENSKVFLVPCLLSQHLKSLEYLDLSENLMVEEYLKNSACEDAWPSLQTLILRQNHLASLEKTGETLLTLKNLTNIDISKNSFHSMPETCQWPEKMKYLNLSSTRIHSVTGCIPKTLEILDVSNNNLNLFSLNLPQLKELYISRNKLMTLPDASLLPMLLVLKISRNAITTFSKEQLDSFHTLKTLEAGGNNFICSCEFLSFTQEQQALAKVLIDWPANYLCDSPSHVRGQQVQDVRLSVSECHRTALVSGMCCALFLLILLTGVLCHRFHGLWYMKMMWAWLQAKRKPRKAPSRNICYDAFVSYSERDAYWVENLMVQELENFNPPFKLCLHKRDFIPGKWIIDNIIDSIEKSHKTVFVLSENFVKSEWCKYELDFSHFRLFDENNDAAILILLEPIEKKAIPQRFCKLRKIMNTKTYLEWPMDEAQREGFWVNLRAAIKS

[3] = molecular target: human TLR4/MD2 endogenously expressed on normal human peripheral blood mononuclear cells (human, UniProt O00206 24-839; Q9Y6Y9 19-160); test: cell-based or functional assay
Chain of human TLR4/MD2 endogenously expressed on normal human peripheral blood mononuclear cells (O00206 24-839, chain 1 of 2): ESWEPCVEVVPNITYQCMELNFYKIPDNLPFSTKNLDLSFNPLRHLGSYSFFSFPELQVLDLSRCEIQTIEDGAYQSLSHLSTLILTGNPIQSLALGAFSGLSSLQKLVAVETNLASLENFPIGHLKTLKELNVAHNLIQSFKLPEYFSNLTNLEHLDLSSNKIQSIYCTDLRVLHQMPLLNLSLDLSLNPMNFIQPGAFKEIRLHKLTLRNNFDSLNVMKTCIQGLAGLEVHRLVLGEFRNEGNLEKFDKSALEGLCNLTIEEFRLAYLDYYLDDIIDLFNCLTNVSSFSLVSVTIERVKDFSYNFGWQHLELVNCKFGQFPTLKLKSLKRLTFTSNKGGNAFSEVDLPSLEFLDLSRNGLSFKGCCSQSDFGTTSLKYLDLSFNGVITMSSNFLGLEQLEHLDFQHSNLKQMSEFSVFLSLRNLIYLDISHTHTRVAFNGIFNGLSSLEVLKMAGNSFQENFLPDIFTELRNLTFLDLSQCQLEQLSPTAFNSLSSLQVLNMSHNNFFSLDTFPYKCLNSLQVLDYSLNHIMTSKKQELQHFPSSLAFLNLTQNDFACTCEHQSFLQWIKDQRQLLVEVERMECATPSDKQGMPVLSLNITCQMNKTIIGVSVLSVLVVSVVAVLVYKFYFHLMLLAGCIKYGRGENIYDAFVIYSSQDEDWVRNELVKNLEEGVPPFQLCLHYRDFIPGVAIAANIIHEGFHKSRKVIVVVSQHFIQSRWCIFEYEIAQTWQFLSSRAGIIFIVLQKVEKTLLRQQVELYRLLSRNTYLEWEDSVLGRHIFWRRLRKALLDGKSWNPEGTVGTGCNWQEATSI
Chain of human TLR4/MD2 endogenously expressed on normal human peripheral blood mononuclear cells (Q9Y6Y9 19-160, chain 2 of 2): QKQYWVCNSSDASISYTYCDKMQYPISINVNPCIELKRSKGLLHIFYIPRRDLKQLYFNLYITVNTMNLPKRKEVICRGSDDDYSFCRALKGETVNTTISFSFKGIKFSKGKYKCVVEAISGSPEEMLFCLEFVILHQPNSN

[4] = molecular target: T3, human TLR4/MD2 protein (R&D Systems, 3146-TM/CF) (human, UniProt O00206 24-631; Q9Y6Y9 17-160, limits assumed); test: ELISA, human TLR4/MD2 protein immobilized on plate, detection with anti-human IgG-HRP
T3 construct: Bought recombinant complex; also called human TLR4 and MD2 complex
T3 sequence (O00206 24-631 limits assumed, chain 1 of 2): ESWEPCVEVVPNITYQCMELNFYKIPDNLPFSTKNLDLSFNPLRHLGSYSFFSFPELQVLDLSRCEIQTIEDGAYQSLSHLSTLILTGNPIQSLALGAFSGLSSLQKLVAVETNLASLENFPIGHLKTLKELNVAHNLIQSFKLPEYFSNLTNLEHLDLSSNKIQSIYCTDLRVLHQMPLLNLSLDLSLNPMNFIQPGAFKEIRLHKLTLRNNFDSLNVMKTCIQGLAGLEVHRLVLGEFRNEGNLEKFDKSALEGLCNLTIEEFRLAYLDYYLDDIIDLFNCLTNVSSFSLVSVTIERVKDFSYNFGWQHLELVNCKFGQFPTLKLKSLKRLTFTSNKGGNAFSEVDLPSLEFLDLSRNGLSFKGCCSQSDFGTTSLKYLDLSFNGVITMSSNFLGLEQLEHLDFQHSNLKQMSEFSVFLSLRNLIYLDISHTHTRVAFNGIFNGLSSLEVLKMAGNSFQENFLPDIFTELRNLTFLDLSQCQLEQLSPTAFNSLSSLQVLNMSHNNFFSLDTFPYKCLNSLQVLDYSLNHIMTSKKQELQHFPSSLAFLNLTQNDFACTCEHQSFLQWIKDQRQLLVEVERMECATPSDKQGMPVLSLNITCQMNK
T3 sequence (Q9Y6Y9 17-160 limits assumed, chain 2 of 2): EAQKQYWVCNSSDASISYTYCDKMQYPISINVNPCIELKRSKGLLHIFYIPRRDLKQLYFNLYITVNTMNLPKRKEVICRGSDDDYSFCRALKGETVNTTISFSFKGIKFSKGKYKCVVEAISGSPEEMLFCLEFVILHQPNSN
Description: as §1

[5] = molecular target: T1, human TLR2 protein (R&D Systems, …); test: SPR (Biacore T200), human TLR2 protein captured by anti-His IgG on CM5 chip, antibody at 200 nM as analyte, bivalent analyte model
Description: To evaluate a binding activity of the fully human 31-5F5-2F3.m1 prepared in Example 4 for human TLR2, an SPR analysis was carried out.
In the SPR analysis, Biacore T200 (GE Healthcare Japan) was used to carry out analysis. An Anti-His IgG (enclosed in His Capture Kit) was immobilized on a sensor chip CM5 (GE Healthcare Japan, BR-1005-30) using a His Capture Kit (GE Healthcare Japan, 28-9950-56) and Amine Coupling Kit (GE Healthcare Japan, BR-1000-50). Flow path No. 1 is referred to as a reference, onto which the human TLR2 protein was not attached. Onto each of other flow paths (No. 2, No. 3, and No. 4), a human TLR2 protein (R&D Systems, 2616-TR-050) diluted to 0.66 μg/mL in HBS-EP+ buffer (GE Healthcare Japan, BR-1006-69) was added at a flow rate of 5 μL/minute for 2 minutes and then immobilized. Thereafter, a solution of fully human 31-5F5-2F3.m1 diluted to 200 nM in HBS-EP+buffer was added at a flow rate of 50 μL/minute for 2 minutes, and the fully human antibody-human TLR2 binding was measured. Next, HBS-EP+buffer was added at a flow rate of 50 μL/minute for 5 minutes and the dissociation of the fully human antibody and human TLR2 was measured. Bivalent analyte model and the Rmax were analyzed by Fit local to calculate the association rate constant (ka) and dissociation rate constant (kd), and the association-dissociation constant (KD) was calculated by dividing kd by ka.

[6] = molecular target: T2, human TLR2 endogenously expressed on …; test: cell-based or functional assay; remark: listed apart in the source

T1 sequence (O60603 21-590 limits assumed): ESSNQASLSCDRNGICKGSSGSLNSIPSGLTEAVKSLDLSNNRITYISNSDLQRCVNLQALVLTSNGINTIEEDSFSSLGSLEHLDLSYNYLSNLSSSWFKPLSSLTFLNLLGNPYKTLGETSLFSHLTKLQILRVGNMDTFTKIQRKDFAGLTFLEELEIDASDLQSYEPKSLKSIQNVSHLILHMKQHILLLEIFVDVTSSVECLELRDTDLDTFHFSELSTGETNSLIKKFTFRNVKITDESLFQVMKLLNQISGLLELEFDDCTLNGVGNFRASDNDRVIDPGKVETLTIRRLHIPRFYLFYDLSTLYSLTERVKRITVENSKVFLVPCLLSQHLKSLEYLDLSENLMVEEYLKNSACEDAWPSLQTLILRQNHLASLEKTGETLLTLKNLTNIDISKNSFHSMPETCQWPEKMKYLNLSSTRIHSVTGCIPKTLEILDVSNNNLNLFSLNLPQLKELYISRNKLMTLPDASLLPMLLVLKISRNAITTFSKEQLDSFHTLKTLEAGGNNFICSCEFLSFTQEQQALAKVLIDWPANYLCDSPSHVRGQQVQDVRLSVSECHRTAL

Binder	EC50 [1] [nM]	IC50 value, killed Pseudomonas aeruginosa-induced TNFα production on normal human peripheral blood mononuclear cells [2] [nM]	IC50 value, killed Pseudomonas aeruginosa-induced TNFα production on normal human peripheral blood mononuclear cells [3] [nM]	EC50 [4] [nM]	Kd [5] [nM]	IC50 value against Pam2CSK4-induced AP production in THP1-xBlue cells [6]
fully human ICU-1-Igγ1-LAsh (bispecific antibody, human IgG1, kappa, L234A L235A, As fully human ICU-1-Igγ1, but with L234A, L235A and I253A (EU index) in the human Igγ1 constant region; also called IgG(TLR2)-scFv(TLR4) bispecific antibody with L234A, L235A and I253A) heavy: not shown light: DVQMTQSPSSLSASVGDRVTITCRSSQSLVFSDGNTYLNWFQQKPGKAPKRLIYKVSNRDSGVPSRFSGSGSGTDFTLTISSLQPEDFATYYCMQGAHWPLTFGQGTKVEIKRTVAAPSVFIFPPSDEQLKSGTASVVCLLNNFYPREAKVQWKVDNALQSGNSQESVTEQDSKDSTYSLSSTLTLSKADYEKHKVYACEVTHQGLSSPVTKSFNRGEC	0.21	0.0172	0.0172	0.522		
fully human ICU-1-Igγ1 (bispecific antibody, human IgG1, kappa, Tetravalent IgG-scFv: an anti-TLR4 scFv is joined by a GS linker to the C terminal of each heavy chain of the anti-TLR2 IgG1; also called IgG(TLR2)-scFv(TLR4) bispecific antibody) heavy: not shown light: DVQMTQSPSSLSASVGDRVTITCRSSQSLVFSDGNTYLNWFQQKPGKAPKRLIYKVSNRDSGVPSRFSGSGSGTDFTLTISSLQPEDFATYYCMQGAHWPLTFGQGTKVEIKRTVAAPSVFIFPPSDEQLKSGTASVVCLLNNFYPREAKVQWKVDNALQSGNSQESVTEQDSKDSTYSLSSTLTLSKADYEKHKVYACEVTHQGLSSPVTKSFNRGEC	0.15	0.04	0.04	0.493		
fully human 31-5F5-2F3.m1 (antibody, human IgG1, kappa, V domains shown, Human Igγ1 / human kappa constant regions; also called fully human anti-human TLR2 antibody; fully human antibody of 31-5F5-2F3.m1) VH: EVQLVESGGGLVQPGGSLRLSCAASGFTFSNYAMSWVRQAPGKGLEWVAAIYGRGGYTNYADSVKGRFTISRDNSKNTLYLQMNSLRAEDTAVYYCAKEGGGYRDYFDYWGQGTLVTVSS VL: DVQMTQSPSSLSASVGDRVTITCRSSQSLVFSDGNTYLNWFQQKPGKAPKRLIYKVSNRDSGVPSRFSGSGSGTDFTLTISSLQPEDFATYYCMQGAHWPLTFGQGTKVEIKR					0.0885	0.0977 nM and 0.13 nM
